Assay results taken from patent US20240398896A1, “INFLAMMASOME INHIBITION” (National University of Singapore, priority 2021, published 2024).

Experiments:
[1] = rheumatoid arthritis; cited from earlier work
[2] = test system: SARS-COV-2 immune complex-induced inflammasome activation; experiment: SARS-COV-2 immune complex-induced inflammasome activation in human monocytes; format: cell-based; conditions: 50 μM MCC950, 18 h
NLRP3 inflammasome [3] = target: T1, NLRP3 inflammasome (Homo sapiens, UniProt Q9ULZ3); experiment: ASC speck and filament formation in HEK293T cells reconstituted with human NLRP3-mCitrine and human ASC-mPlum (ImageStream, confocal); format: cell-based; parameters: expressed in transfected cells; host or cells: HEK293T; conditions: HEK293T; for ASC2 filament formation / distribution: ImageStream and confocal
T1 sequence (Q9ULZ3 whole entry): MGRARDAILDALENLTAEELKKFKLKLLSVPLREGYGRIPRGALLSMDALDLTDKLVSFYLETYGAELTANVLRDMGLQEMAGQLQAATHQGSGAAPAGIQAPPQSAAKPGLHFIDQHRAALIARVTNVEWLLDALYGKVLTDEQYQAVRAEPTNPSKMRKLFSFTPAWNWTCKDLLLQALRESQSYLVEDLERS
Procedure: (§1) Inflammasome activation assays.
ImageStream imaging flow cytometry. […] Nuclei were stained with DAPI.
Confocal imaging. […] At 48 h post-transfection, cells were fixed with 10% formalin for 15 min at room temperature. DAPI (1:2000 dilution) was used for nuclear staining. All samples were then mounted and examined using the Leica TCS SP8 confocal microscope.

NLRP3 inflammasome [4] = target: T2, NLRP3 inflammasome (Mus musculus, UniProt Q9EPB4); experiment: Inflammasome activation in LPS-primed mouse immortalized macrophages (iMACs) stably expressing ASC2, stimulated with nigericin; format: cell-based; parameters: endogenous in cells; host or cells: BMDMs of C57BL/6 wild-type and bat ASC2/rtTA mice; conditions: iMACs stably expressing equal ASC2-LSSmOrange, LPS 3 h, FIG. 11J, 11K
T2 sequence (Q9EPB4 1-193): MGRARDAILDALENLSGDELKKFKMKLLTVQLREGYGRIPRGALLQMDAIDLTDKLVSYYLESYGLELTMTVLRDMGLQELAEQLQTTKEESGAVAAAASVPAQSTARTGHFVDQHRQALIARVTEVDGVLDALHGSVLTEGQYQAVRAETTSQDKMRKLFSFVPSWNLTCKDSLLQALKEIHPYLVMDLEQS
From the text: (§2) Generation of THP-1 and IMACs stable cells. […] Single cell clones were generated for THP-1 cells stably expressing ASC2-LSSmOrange.
as §1

human ASC = target: T3, human ASC (Homo sapiens, UniProt Q9ULZ3); experiment: Co-immunoprecipitation of ASC2-His with human ASC-Flag from HEK293T cells; format: binding; conditions: 0.25 μg bat or hupa4 ASC2 vs 3 μg human ASC2 transfected, FIG. 26A
T3 construct: expressed in transfected cells; host or cells: HEK293T
T3 sequence (Q9ULZ3 whole entry): as the sequence (Q9ULZ3 whole entry) above
Procedure: (§3) Co-immunoprecipitation. HEK293T cells were transfected in 6-well plate with plasmids encoding His-tagged empty vector (His alone), bat ASC2, human ASC2, and Hupa4 ASC2 along with Flag-tagged human or bat ASC. 3 μg human ASC2, in contrast to 0.25 μg control, bat or hupa4 ASC2, were transfected to normalize the expression. At 48 h post-transfection, cells were lysed in IP lysis buffer (Pierce) according to manufacturer's protocol and centrifuged at 500 g for 10 minutes at 4° C. The supernatants were subjected to immunoprecipitation by incubation for 16 hours at 4° C. with anti-Flag (Sigma) incubated magnetic beads, followed by washing three times with TBS containing 0.05% Tween 20 and once with purified water. Bound proteins were separated by 15% SDS-PAGE, followed by immunoblotting analysis with the indicated antibodies.

bat ASC = experiment: Co-immunoprecipitation of ASC2-His with bat ASC-Flag from HEK293T cells; format: binding; conditions: 0.25 μg bat or hupa4 ASC2 vs 3 μg human ASC2 transfected, FIG. 26B
Procedure: as §3

NLRP3 inflammasome [5] = target: T1, NLRP3 inflammasome; experiment: Inflammasome activation in LPS-primed THP-1 macrophages stably expressing ASC2, stimulated with nigericin; format: cell-based; parameters: endogenous in cells; host or cells: THP-1 macrophages (PMA-differentiated, LPS-primed); conditions: THP-1 macrophages stably expressing equal ASC2-mCitrine, LPS 3 h, nigericin 2 h; FIG. 11L, 11M
From the text: as §2, §1
ImageStream imaging flow cytometry.

Molecule | Reason for discontinuation after phase II clinical trials [1] | Cell death (LDH release) ([2]; 100 ng/ml Pam3CSK4, immune complexes, FIG. 10M) | IL-1β secretion ([2]; Pam3CSK4 priming, immune complexes, FIG. 10I) | ASC2 filament formation / distribution (NLRP3 inflammasome [3]) | Co-localization with human ASC (NLRP3 inflammasome [3]; imaging, FIG. 3A) | Inflammasome inhibition (LDH release and IL-1β secretion) (NLRP3 inflammasome [4]) | Interaction with human ASC (co-IP) (human ASC) | Interaction with bat ASC (co-IP) (bat ASC) | Inflammasome inhibition (LDH release and IL-1β secretion) (NLRP3 inflammasome [5]) | ASC speck formation (human NLRP3 inflammasome activation) (NLRP3 inflammasome [3]; human NLRP3-mCitrine, human ASC-mPlum, 50 ng ASC2-LSSmOrange, 48 h post-transfection)
CC(C)(O)c1coc(S(=O)(=O)NC(=O)Nc2c3c(cc4c2CCC4)CCC3)c1 [MCC950] | liver toxicity | abolished | abolished | – | – | – | – | – | – | –
human ASC2: wildtype human ASC2, 89 amino acids, SEQ ID NO:7 (protein) MGTKREAILKVLENLTPEELKKFKMKLGTVPLREGFERIPRGALGQLDIVDLTDKLVASYYEDYAAELVVAVLRDMRMLEEAARLQRAA | – | – | – | diffusely distributed | not between human ASC2 and human ASC | – | – | – | – | –
hupa4 ASC2: human ASC2 with 4 key sites substituted simultaneously with the ones in bat ASC2, SEQ ID NO:6 (protein) MGTKREAILEVLENLTPEELKKFKMKLGTVPLREGFRRIPRGALGQLDIVDLTDKLVASYCEDYAAELVVAVLRDMGMLEEAARLQRAA | – | – | – | form filaments | – | gain-of-function | interact strongly with human ASC | interact with bat ASC more strongly than human ASC2 | gain-of-function | gained the ability to inhibit NLRP3 inflammasome
